The source of these data is patent publication US20200231674A1 (published 2020).

In this experiment the target is T1, human CD8 alpha (on transfected HEK293T cells) (human, UniProt P01732 22-235).
T1 construct: whole, on cells
As to the kind of experiment: FACS on HEK293-T cells transfected with human CD8a (Example 2, FIG. 4). The protocol:
The binding characteristics of various VHHs (as described in Example 1) were tested by flow cytometry. HEK293-T cells were transfected with a human CD8a expression plasmid and stained with the His-tagged VHHs at […], followed by staining with an anti-His Fitc conjugated antibody. Binding was measured by detecting cellular fluorescence via flow cytometry.

T1 sequence (P01732 22-235): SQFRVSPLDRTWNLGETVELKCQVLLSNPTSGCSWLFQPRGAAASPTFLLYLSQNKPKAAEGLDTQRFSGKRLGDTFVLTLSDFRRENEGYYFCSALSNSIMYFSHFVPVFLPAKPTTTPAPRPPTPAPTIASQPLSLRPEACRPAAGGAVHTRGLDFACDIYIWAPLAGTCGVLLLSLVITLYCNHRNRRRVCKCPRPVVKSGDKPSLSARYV

B1: 2CDA 74 (VHH)
VHH: QVQLQESGGGLVQAGGSLRLSCAVSGFTFDNYAIGWFRQAPGKEREGVSCISRSDGSTYYADSVRGRFTISSDNAKNTVYLQMNSLKPEDTAVYYCAAETSADSGEFRFGWVLKPSLYDYWGQGTQVTVSS
notes: entry carries AAA-HA-His6 tail (pMECS format); free cysteine in CDR2 at position 50
With B1, the binding result is reported as “binds”.
